Where “and” joins values, the source holds several entries; their conditions need not be identical. Identical values can stand only once. One block for each molecule: values may come before it.
Legend:
[1] = biological target: Full-length Dreb2a fused to His-tag and GB1-tag (GB1-Dreb2a f.l.) (A. thaliana) (UniProt O82132); experiment: cross-linking
Dreb2a f.l. (GB1 fusion) = Dreb2a f.l. (GB1 fusion) (Arabidopsis thaliana, UniProt O82132 1-335); experiment: EMSA
[2] = biological target: Dreb2a f.l. (GB1 fusion);Med25 551-680 (ACID domain) (Arabidopsis thaliana;Arabidopsis …, UniProt O82132;Q7XYY2 1-335;551-680, |); experiment: EMSA supershift
[3] = biological target: T1, Full-length Dreb2a fused to His-tag and GB1-tag (GB1-Dreb2a f.l.) (A. thaliana, UniProt O82132 1-335); experiment: SPR
[4] = biological target: T1, Full-length Dreb2a fused to His-tag and …; experiment: cross-linking
[5] = biological target: T2, Dreb2a 168-335 (binding domain and activation domain of Dreb2a) (A. thaliana, UniProt O82132 168-335); experiment: SPR
T2 sequence (looked up): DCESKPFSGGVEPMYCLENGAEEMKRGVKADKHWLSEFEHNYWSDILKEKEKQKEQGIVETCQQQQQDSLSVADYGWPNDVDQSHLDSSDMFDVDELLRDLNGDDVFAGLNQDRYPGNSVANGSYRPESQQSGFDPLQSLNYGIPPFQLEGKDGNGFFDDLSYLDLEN

- stoichiometry N [1]: 1 and 2
Molecule: Med25 551-680-GST (GST-tagged ACID domain of Arabidopsis thaliana Med25) (from UniProt Q7XYY2 551-680) (domain or fragment)

- Kd [3]: ~100 nM
- stoichiometry N [4]: 2
- Kd [5]: ~1000 nM
B3: Med25 551-680 (ACID domain of the Med25 mediator subunit from Arabidopsis thaliana), GST-tag removed (domain or fragment, A. thaliana, UniProt Q7XYY2 551-680, looked up)
chain: TSQSKYVKVWEGNLSGQRQGQPVLITRLEGYRSASASDSLAANWPPTMQIVRLISQDHMNNKQYVGKADFLVFRAMSQHGFLGQLQDKKLCAVIQLPSQTLLLSVSDKACRLIGMLFPGDMVVFKPQIPN

Further lines, the molecule ahead of its results:

B1: 29-nt rd29A mutated DRE mut-probe (dsDNA)
DNA 1: AAAGATATACTACTTTTATGAGTTCCAAA
DNA 2: TTTGGAACTCATAAAAGTAGTATATCTTT
- binding result (Dreb2a f.l. (GB1 fusion)): no binding

B2: 29-nt rd29A DRE Wt-probe (dsDNA)
DNA 1: AAAGATATACTACCGACATGAGTTCCAAA
DNA 2: TTTGGAACTCATGTCGGTAGTATATCTTT
- binding result (Dreb2a f.l. (GB1 fusion)): binds
- binding result [2]: binds

— paper PMC3401450 (Nucleic Acids Research, 2012)
